T1: extracellular domain (ECD) of recombinant human Sortilin with a C-terminal HIS tag (ECD-huSortilin-HIS) (human, UniProt Q99523 78-755)
T1 construct: Bought (R&D Systems); also called human sortilin-ECD
T1 sequence: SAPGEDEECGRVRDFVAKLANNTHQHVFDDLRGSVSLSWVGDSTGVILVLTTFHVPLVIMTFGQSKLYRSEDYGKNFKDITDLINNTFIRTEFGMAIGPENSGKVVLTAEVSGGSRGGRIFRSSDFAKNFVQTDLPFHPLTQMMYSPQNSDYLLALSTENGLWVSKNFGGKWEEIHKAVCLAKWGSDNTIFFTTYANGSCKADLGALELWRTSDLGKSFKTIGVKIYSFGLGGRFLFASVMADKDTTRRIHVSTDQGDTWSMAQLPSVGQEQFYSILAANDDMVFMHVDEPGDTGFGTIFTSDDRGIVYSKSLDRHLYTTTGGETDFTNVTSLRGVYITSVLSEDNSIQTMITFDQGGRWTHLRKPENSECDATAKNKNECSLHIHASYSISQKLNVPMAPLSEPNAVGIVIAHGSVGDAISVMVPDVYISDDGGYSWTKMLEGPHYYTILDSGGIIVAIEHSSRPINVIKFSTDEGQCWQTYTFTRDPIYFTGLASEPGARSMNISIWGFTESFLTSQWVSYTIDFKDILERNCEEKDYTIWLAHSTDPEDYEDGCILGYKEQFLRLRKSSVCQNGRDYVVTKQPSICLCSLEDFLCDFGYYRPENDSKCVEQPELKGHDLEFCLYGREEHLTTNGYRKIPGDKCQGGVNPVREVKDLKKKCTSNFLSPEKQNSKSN

B1: mouse monoclonal antibody 8H24 (antibody, V domains shown)
VH: QAYLQQSGTELVRPGASVKMSCKASGYTFTSYSMHWVKQTPRQGLEWIGAIYPGNDATSYNQKFKGKATLTVDKSSSTAYMQLSSLTSEDSAVYFCAREGYYGSSFEAWFASWGQGTLVTVSA
VL: DVLMTQTPLSLPVSLGDQASISCRSSQSIVHSNGNTYLEWYLQKPGQSPKLLIYKVSNRFSGVPDRFSGSGSGTDFTLKISRVEAEDLGVYYCFQGSHVLPTFGGGTKLEIK
notes: also called murine 8H24; m8H24
B2: mouse monoclonal antibody 11M14 (antibody, V domains shown)
VH: EVQLVESGGDLVKPGGSLKLSCAASGFTFNIYGMSWVRQTPDKRLEWVATISSGGIYTYYPDILKGRFTISRDNAKNTLYLQMSSLKSEDTAMYYCARHPGGAMDYWGQGTSVTVSS
VL: DIQMTQSPASLSVSVGETVTITCRVSENIYSNLAWYQQKQGKSPHLLVYAATNLADGVPSRFSGSGSGTQYSLKINSLQSEDFGSYYCQHFWGTPPWTFGGGTKLEIK
notes: also called murine 11M14; m11M14
B3: mouse monoclonal antibody 2F18 (antibody, mouse IgG1, V domains shown)
VH: B2 VH with S53T, I63S, L64V, G101V, M104L
VL: B2 VL with M4V, V25A, A50T, N53T
B4: mouse monoclonal antibody 5E20 (antibody, V domains shown)
VH: EVQLVESGGDLVKPGGSLKLSCAAPGFTFSTYGMSWVRQTPDKRLEWVAIISSGGSYTYYSDTVKGRFTISRDNAKNTLYLQMSSLKSEDTAMYYCSRSSSHWYFDVWGTGTTVTVSS
VL: DILMTQSPSSMSVSLGDTVSITCHASQGISSNIGWLQQKPGKSFKGLIYHGTNLKDGVPSRFSGSGSGADFSLTISSLESEDFADYFCVQYAQFPYTFGGGTKLEKR
notes: also called murine 5E20; m5E20
B5: mouse monoclonal antibody 2C14 (antibody, mouse IgG1, V domains shown)
VH: EVQLVESGGDLVKPGGSLKLSCAASGFTFNTHGMSWVRQTPDKSLEWVATISTGGFYTSYPDSVKGRFTISRDNAKNTLFLQMSSLKSEDTAMYYCAKSSSHWYFDVWGTGTTVTVSS
VL: B4 VL with K55E, F71Y, S80Y, F87Y, Q93H, K106I, R107K
B6: mouse monoclonal antibody 6B15 (antibody, mouse IgG1, V domains shown)
VH: B4 VH with Y80N, Y95F
VL: B4 VL with S7F, A69T, F87Y
B7: mouse monoclonal antibody 2P22 (antibody, mouse IgG2b, V domains shown)
VH: EVQLVESGGDLVKPGGSLKLSCAASGFTFSIYGMSWVRQTPDKKLEWVAAISSGGIYTYYPDSVKGRFTISRDNAKNTLYLQMSSLKSADTAMYYCTRNDYDWFAYWGQGTLVTVSA
VL: DIQMTQSPSSLSASLGERVSLTCRASQDIGSSLNWLQQEPDGTIKRLIYATSSLDSGVPKRFSGSRSGSDYSLTISSLESEDFVDYYCLQYASSPYTFGGGTKLEIK
B8: hu8H24VHv2/hu8H24VLv1 (antibody, V domains shown)
VH: QAQLVQSGAEVVKPGSSVKVSCKASGYTFTSYSMHWVRQAPGQGLEWIGAIYPGNDATSYNQKFKGRATLTVDKSTSTAYMELSSLRSEDTAVYFCAREGYYGSSFEAWFASWGQGTTVTVSS
VL: B1 VL with L3V, S14T, L15P, D17E, Q18P, K50Q, L88V, L109V
notes: Humanized variable regions; also called 8H24H2L1
B9: hu8H24VHv2/hu8H24VLv2 (antibody, V domains shown)
VH: B8 VH
VL: B1 VL with L3V, L9S, S14T, L15P, D17E, Q18P, K50Q, K79T, L88V, L109V
notes: Humanized variable regions; also called 8H24H2L2
B10: chimeric 11M14 (antibody, human IgG1, kappa, L234A L235A, V domains shown)
VH: B2 VH
VL: DIQMTQSPASLSVSVGETVTITCRVSENIYSNLAWYQQKQGKSPHLLVYAATNLADGVPSRFSGSGSGTQYSLKINSLQSEDFGSYYCQHFWGTPPWTFGGGTKLEIKR
B11: chimeric 5E20 (antibody, human IgG1, kappa, L234A L235A, V domains shown)
VH: B4 VH
VL: DILMTQSPSSMSVSLGDTVSITCHASQGISSNIGWLQQKPGKSFKGLIYHGTNLKDGVPSRFSGSGSGADFSLTISSLESEDFADYFCVQYAQFPYTFGGGTKLEIKR

Changes are numbered by the printed parent chain.

For one experiment, the target named is T1, extracellular domain (ECD) of …. The experiment can be described thus: SPR (Biacore T200), mAb captured on anti-mouse chip, sortilin as analyte, global 1:1 fit. As for the experimental part:
Analysis was performed using a Biacore T200 to compare the binding affinity of murine anti-huSortilin antibodies to recombinant human Sortilin. Anti-mouse antibody was immobilized on sensor chip CM5 (GE Healthcare Life Sciences) via amine coupling, and mouse antibodies (ligand) were captured to a level to ensure a maximum binding of analyte of 50 RU (approximately 100RU of ligand binding). Various concentrations of Sortilin (ranging from 0.1 nM to 300 nM) were passed over the captured ligand at 50 µL/min in running buffer (HBS + 0.05% P-20, 1 mg/mL BSA) for 180-300 s association time and 300-900 s dissociation time. Regeneration of the chip surface was accomplished by 2 short injections of 10 mM Glycine-HCI at pH 1.7. Data was blank subtracted to both a sensor not containing ligand and 0 nM analyte concentration. Analysis was performed using a global 1:1 fit with Biacore Insight Evaluation software (v2.0) with bulk refractive index set to zero RU.
For B1, the koff turned out to be 0.00044 s⁻¹ and the kon was found to be 96600 M⁻¹ s⁻¹. Taken in the same sequence, the figures for B2 were 0.000569 s⁻¹ and 91100 M⁻¹ s⁻¹. As to B3, the koff is 0.000162 s⁻¹ and the kon is 57600 M⁻¹ s⁻¹. Take B4: the off-rate constant (koff) was 0.000139 s⁻¹ and the kon turned out to be 87700 M⁻¹ s⁻¹. Taken in the same sequence, the figures for B5 were 0.00245 s⁻¹ and 208000 M⁻¹ s⁻¹. On the same counts, the results for B6 are 0.00013 s⁻¹ and 127000 M⁻¹ s⁻¹. Taken in the same sequence, the figures for B7 were 0.000237 s⁻¹ and 108000 M⁻¹ s⁻¹.

For another experiment the target is unchanged. The experiment is described as follows: SPR (Biacore T200), mAb captured on anti-human chip, sortilin as analyte, global 1:1 fit. As for the experimental part:
Analysis was performed using a Biacore T200 to compare the binding affinity of chimeric and humanized antibodies to recombinant human Sortilin. Anti-Human antibody was immobilized on sensor chip CM5 (GE Healthcare Life Sciences) via amine coupling, and humanized antibodies (ligand) were captured to a level to ensure a maximum binding of analyte of 50 RU (approximately 100 RU of ligand binding). Various concentrations of Sortilin (ranging from 0.1 nM to 300 nM) were passed over the captured ligand at 50 µL/min in running buffer (HBS + 0.05% P-20, 1 mg/mL BSA) for 300 s association time and 1200 s dissociation time. Regeneration of the chip surface was accomplished by 2 short injections of 3 M MgCl. Data was blank subtracted to both a sensor not containing ligand and 0 nM analyte concentration. Analysis was performed using a global 1:1 fit with Biacore Insight Evaluation software (v2.0) with bulk refractive index set to zero RU.
For the molecule B8, the koff was determined as 0.00257 s⁻¹. Still for that read-out and setting: under B9 stands 0.0025 s⁻¹. Take B10: the dissociation rate constant (koff) is 0.000969 s⁻¹ and the kon amounted to 384000 M⁻¹ s⁻¹. As for B11, the koff was 0.000396 s⁻¹ and the on-rate (kon) came to 597000 M⁻¹ s⁻¹.

These data come from US20230348588A1 (published 2023).
